Patent US20230242592A1, “IDENTIFICATION OF […] PEPTIDES AND USES THEREOF” (priority 2020, published 2023)
pIC50, pKd: −log10 of the molar value.

Key:
ACE2-HEK293 cells = assay: Trypan blue toxicity in ACE2-HEK293 cells in the presence of virus; details: different concentrations; viability ca. 50%
[1] = biological target: interaction between RBD and the neutralizing antibody (Severe acute respiratory syndrome coronavirus 2, UniProt P0DTC2); details: read-out: IC50 of inhibiting interaction between RBD and the neutralizing antibody
[2] = tested on: SARS-CoV-2 spike protein pseudotyped lentivirus; assay: SARS-CoV-2 spike pseudotyped lentivirus infection of ACE2-HEK293 cells (luciferase); assay type: cell-based; details: 0.33 uM
SARS-CoV-2 spike RBD = SARS-CoV-2 spike RBD (Severe acute respiratory syndrome coronavirus 2, UniProt P0DTC2)

## ACE2
ACE2-HEK293 cells
  change in cell viability in the presence of virus: did not result in statistically significant changes in cell viability
[1]
  pIC50: 7.46 to 7.52
[2]
  inhibition of pseudotyped virus infection: virtually complete inhibition
SARS-CoV-2 spike RBD
  RMax, binding to RBD: 0.5785 ± 0.01557
SARS-CoV-2 spike RBD; read-out: dissociation constant / binding affinity with RBD
  pKd: ~8.52
